Source: publication PMC9834221, “TLR3 forms a laterally aligned multimeric complex along double-stranded RNA for efficient signal transduction”

T1: TLR3 ectodomain Mut10 (mouse, UniProt Q99MB1 26-705, S116E;Q118E;K138E;K140E;N142E;K145E;N146E)
T1 sequence: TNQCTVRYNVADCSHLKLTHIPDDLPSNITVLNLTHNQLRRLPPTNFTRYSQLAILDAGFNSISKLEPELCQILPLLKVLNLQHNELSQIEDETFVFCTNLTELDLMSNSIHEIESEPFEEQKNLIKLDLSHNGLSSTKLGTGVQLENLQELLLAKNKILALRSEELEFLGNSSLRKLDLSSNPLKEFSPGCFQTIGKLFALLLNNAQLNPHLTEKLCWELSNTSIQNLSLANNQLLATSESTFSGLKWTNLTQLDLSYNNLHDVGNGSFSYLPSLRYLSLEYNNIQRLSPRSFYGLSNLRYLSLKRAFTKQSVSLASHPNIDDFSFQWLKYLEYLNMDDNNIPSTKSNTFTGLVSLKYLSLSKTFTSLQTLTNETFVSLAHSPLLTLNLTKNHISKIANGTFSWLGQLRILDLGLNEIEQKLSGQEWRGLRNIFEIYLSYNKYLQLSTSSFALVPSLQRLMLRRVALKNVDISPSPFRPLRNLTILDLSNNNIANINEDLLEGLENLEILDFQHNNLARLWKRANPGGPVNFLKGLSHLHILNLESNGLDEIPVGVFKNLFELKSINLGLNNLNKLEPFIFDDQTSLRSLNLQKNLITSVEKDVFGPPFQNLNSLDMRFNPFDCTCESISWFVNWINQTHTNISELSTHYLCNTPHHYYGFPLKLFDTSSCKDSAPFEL

T2: TLR3 ectodomain WT (mouse, UniProt Q99MB1 26-705)
T2 sequence: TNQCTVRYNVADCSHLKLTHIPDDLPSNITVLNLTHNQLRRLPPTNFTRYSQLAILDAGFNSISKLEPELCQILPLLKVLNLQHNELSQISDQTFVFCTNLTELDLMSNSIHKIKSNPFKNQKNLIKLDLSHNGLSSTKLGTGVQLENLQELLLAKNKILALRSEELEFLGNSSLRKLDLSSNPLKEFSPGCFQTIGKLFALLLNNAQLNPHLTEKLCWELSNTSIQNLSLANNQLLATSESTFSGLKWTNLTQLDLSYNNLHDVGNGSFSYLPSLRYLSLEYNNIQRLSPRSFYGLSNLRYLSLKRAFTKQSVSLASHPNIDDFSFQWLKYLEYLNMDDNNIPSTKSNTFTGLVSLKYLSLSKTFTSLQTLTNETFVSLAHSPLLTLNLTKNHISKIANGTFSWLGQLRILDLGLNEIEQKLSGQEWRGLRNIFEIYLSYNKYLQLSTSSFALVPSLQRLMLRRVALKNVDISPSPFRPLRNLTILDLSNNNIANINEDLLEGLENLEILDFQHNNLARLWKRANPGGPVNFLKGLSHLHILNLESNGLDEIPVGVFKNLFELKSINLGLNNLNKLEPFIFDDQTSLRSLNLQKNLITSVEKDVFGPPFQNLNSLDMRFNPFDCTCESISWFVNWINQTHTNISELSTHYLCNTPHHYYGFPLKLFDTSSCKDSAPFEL


How the values were obtained:
[1] = biological target: T1, TLR3 ectodomain Mut10; test: cryo-EM 3D reconstruction; dimer identical to WT; Protein in 25 mM MES-NaOH pH 5.3, 0.2-0.3 M NaCl (purification buffer); complex formation conditions not in the material; details: protein: recombinant; tags: C-terminal FLAG-His6; chain copies: 2; blunt
[2] = biological target: T2, TLR3 ectodomain WT; test: cryo-EM structure; two TLR3 dimers laterally aligned along dsRNA; Protein in 25 mM MES-NaOH pH 5.3, 0.2-0.3 M NaCl (purification buffer); complex formation conditions not in the material; details: protein: recombinant; tags: C-terminal FLAG-His6; chain copies: 4; blunt

Binder | binding result [1] | binding result [2]
46 bp dsRNA (dsRNA, 2'-O-methyl at strand 1 positions 10-15 and 36-41 (lower case); complement modifications not stated) RNA 1: AUUCUGCGGAUUAUUUGGCAAAGGAAGCAUUGACACAUGCGCCAAU RNA 2: AUUGGCGCAUGUGUCAAUGCUUCCUUUGCCAAAUAAUCCGCAGAAU | binds | 
90 bp dsRNA (dsRNA, 2'-O-methyl at strand 1 positions 10-15 and 80-85 (lower case); complement modifications not stated) RNA 1: AUUCUGCGGAUUAUUUGGCAAAGGAAGCAUUGACACAUGCGCCAAUUCUGCGGAUUAUUUGGCAAAGGAAGCAUUGACACAUGCGCCAAU RNA 2: AUUGGCGCAUGUGUCAAUGCUUCCUUUGCCAAAUAAUCCGCAGAAUUGGCGCAUGUGUCAAUGCUUCCUUUGCCAAAUAAUCCGCAGAAU |  | binds
